According to paper PMC4119751 (Biochemistry, 2013):
Residue numbers refer to the chain shown, from its start. Where two headings read alike, the source gives them in different places. Bridge positions count the residues as written; N and C are the ends. Ends that are not written are not given here.

T1: 14-mer V3 peptide KRIHIGPGRAFYTT (MN sequence) (HIV-1 strain MN, V3 crown (peptide))
T1 chain: KRIHIGPGRAFYTT

T2: V3 peptide with Arg^315Gln mutation KRIHIGPGQAFYTT (HIV-1 strain MN, V3 crown, Arg315Gln …, point mutant)
T2 chain: KRIHIGPGQAFYTT

B1: Fv 447–52D Tyr^H100JThr (other, human)
VH: EVQLVESGGGLVKPGGSLRLTCVASGFTFSDVWLNWVRQAPGKGLEWVGRIKSRTDGGTTDYAASVKGRFTISRDDSKNTLYLQMNSLKTEDTAVYSCTTDGFIMIRGVSEDYYYTYMDVWGKGTTVTVSS
VL: QSVLTQPPSVSAAPGQKVTISCSGSSSNIGNNYVLWYQQFPGTAPKLLIYGNNKRPSGIPDRFSGSKSGTSATLGITGLQTGDEADYFCATWDSGLSADWVFGGGTKLTVL
B2: Fv 447–52D Trp^L91Ala (other, human)
VH: B1 VH with T116Y
VL: B1 VL with W92A
B3: Fv 447–52D Asp^H95Asn (other, human)
VH: B1 VH with D101N, T116Y
VL: B1 VL
B4: Fv 447–52D Trp^H33Ala (other, human)
VH: B1 VH with W33A, T116Y
VL: B1 VL
B5: Fv 447–52D wild type (other, human)
VH: B1 VH with T116Y
VL: B1 VL
B6: Fv 447–52D Trp^L96Ala (other, human)
VH: B1 VH with T116Y
VL: B1 VL with W100A

What was measured:
[1] = target: Env of HIV-1 SF162 on pseudovirus (HIV-1 strain SF162)
[2] = target: V3_(MNCYCLIC) 14mer peptide … (HIV-1 strain MN); experiment: ITC
wild type Fv 447–52D = experiment: ITC, V3 peptide variants titrated into wild type Fv 447–52D; type: binding, human; details: linear and cyclic V3 with wild type Fv, ITC 25 °C
[3] = target: T1, 14-mer V3 peptide KRIHIGPGRAFYTT (MN …); experiment: ITC
[4] = target: T1, 14-mer V3 peptide KRIHIGPGRAFYTT (MN …); experiment: ITC
SF162 pseudovirus = experiment: TZM-bl neutralization assay against SF162 pseudovirus; type: cell-based, HIV-1; details: Fv mutant vs wild type Fv
[5] = target: T1, 14-mer V3 peptide KRIHIGPGRAFYTT (MN …); experiment: ITC
[6] = target: T2, V3 peptide with Arg^315Gln mutation …; experiment: ITC

Row | Molecule | IC50 of neutralisation of SF162 pseudovirus, TZM-bl cells (luciferase) [1] | other [3] | Kd [4] | also measured
1 | Fv 447–52D wild type | 19 µM |  |  | Kd [2]: 16 nM
2 | CRIHIGPGRAFYTC (disulfide 1-14 (inferred)) [V3 Cyclic] |  |  |  | effect of cyclization on affinity (in words) (wild type Fv 447–52D): cyclization of the V3 crown did not affect much of its interaction with mAb 447–52D
3 | B1 | 23 µM | 3.3 kcal/mol | 1300 nM | 
4 | B2 | 76 µM | 4.72 kcal/mol |  | fold decrease in neutralization capability (SF162 pseudovirus): 4.0 fold; Kd [5]: 5.4 µM
5 | B3 | 41 µM | 5.04 kcal/mol | 3900 nM | 
6 | B4 | 68 µM | 4.02 kcal/mol | 3900 nM | 
7 | B5 |  |  | 23 nM | dH [3]: -8.54 kcal/mol; Kd [6]: 5.1 µM
8 | B6 | 50 µM | 1.22 kcal/mol |  | Kd [5]: 1.8 µM
